Among the data in US20240182547A1 (MOGAM INSTITUTE FOR BIOMEDICAL RESEARCH, published 2024) are Kd values, retold here.

Sequences and labels used below:
B1: 5E9 (antibody, V domains shown)
VH: QVQLVQSGPEVKKPGSSVKVSCKASGYTFGHYGISWVRQAPGQGLEWMAWISAYNGNTDSIQKVQGRVTMTTDTSTNTAYLELRSLRSDDTAVYYCVRDVPATGGAATADYWGQGTTVTVSS
VL: DVVMTQSPLSLPVTLGQPASISCRSSQSLVFSDGNTYLSWFQQRPGQSPRRLIYKVSNRDSGVPDRFSASGSGTDFTLKISRVEADDVGVYYCMQVTHWPRTFGQGTRLEIKR
notes: IgG made in Expi293; also called #60; 60
B2: #62m (antibody, V domains shown)
VH: QVQLVQSGAEVKKPGASVKVSCKASGYTFGHYGISWVRQAPGQGLEWMAWISAYNGNTDSIQKVQGRVTMTTDTSTNTAYLELRSLRSDDTAVYYCVRDVPATGGAATADYWGQGTLVTVSS
VL: DVVMTQSPLSLPVPLGQPASISCRSSQSLVHSDGNTYLSWFQQRPGQSPRRLIYKVSDRDSGVPDRFSGSGSGTDFTLKISRVEAEDVGVYYCMQVTHWPRTFGQGTRLEIKR
notes: Germline-edited (m) form of 5C7, heavy chain edited; IgG; also called 5C7 (modified)
B3: 5C7 (antibody, V domains shown)
VH: QVQLQQSGSEVKKPGASVKVSCKASGYTFGHYGISWVRQAPGQGLEWMAWISAYNGNTDSIQKVQGRVTMTTDTSTNTAYLELRSLRSDDTAVYYCVRDVPATGGAATADYWGQGTLVTVSS
VL: DVVMTQSPLSLPVPLGQPASISCRSSQSLVHSDGNTYLSWFQQRPGQSPRRLIYKVSDRDSGVPDRFSGSGSGTDFTLKISRVEAEDVGVYYCMQVTHWPRTFGQGTRLEIKR
notes: IgG made in Expi293; also called #62; 62
B4: 5C9 (antibody, V domains shown)
VH: QVQLVQSGSEVKKPGASVKVSCKASGYTFGHYGISWVRQAPGQGLEWMAWISAYNGNTDSIQKVQGRVTMTTDTSTNTAYLELRSLRSDDTAVYYCVRDVPATGGAATADYWGQGTTVTVSS
VL: DVVMTQSPLSLPVTLGQPASISCRSSQSLVFSDGNTYLSWFQQRPGQSPRRLIYKVSNRDSGVPDRFSASGSGTDFTLKISRVEADDVGVYYCMQVTHWPRTFGQGTKLEIKR
notes: IgG made in Expi293; also called #61; 61
B5: 8A11 (antibody, V domains shown)
VH: QVQLVQSGSEVKKPGASVKVSCKASGYTFGHYGISWVRQAPGQGLEWMAWISAYNGNTDSIQKVQGRVTMTTDTSTNTAYLELRSLRSDDTAVYYCVRDVPATGGAATADYWGQGTLVTVSS
VL: DVVMTQSPLSLPVTLGQPASISCKSSRSLVHSDGNTYLSWFQQRPGQSPRRLIYKVSNRDSGVPDRFSASGSGTDFTLKISRVEADDVGVYYCMQVTHWPRTFGQGTKLEIKR
notes: IgG made in Expi293; also called #63; 63
B6: D25 (antibody, V domains shown)
VH: QVQLVQSGAEVKKPGSSVMVSCQASGGPLRNYIINWLRQAPGQGPEWMGGIIPVLGTVHYAPKFQGRVTITADESTDTAYIHLISLRSEDTAMYYCATETALVVSTTYLPHYFDNWGQGTLVTVSS
VL: DIQMTQSPSSLSAAVGDRVTITCQASQDIVNYLNWYQQKPGKAPKLLIYVASNLETGVPSRFSGSGSGTDFSLTISSLQPEDVATYYCQQYDNLPLTFGGGTKVEIK
B7: 4G5 (antibody, V domains shown)
VH: QVQLVQSGSEVKKPGASVKVSCKASGYTFTDYGLSWVRQAPGHGLEWMGWITAYNGDTNYAQKFQDRLSVTTDISTSTAYMELRSLKSDDTAVYYCARHVFCSGDGCYSGLGSWGQGTLVTVSS
VL: not shown
notes: IgG made in Expi293; also called #45; 45
B8: #49m (antibody, V domains shown)
VH: QVQLVQSGAEVKKPGASVKVSCKASGYTFTDYGLSWVRQAPGHGLEWMGWITAYNGDTNYAQKFQDRLSVTTDISTSTAYMELRSLKSDDTAVYYCARHVFCSGDGCYSGLGSWGQGTLVTVSS
VL: QSVLTQPPSASGAPGQRVIISCSGSSSNVGSNTVNWYQQLPGTAPKLLIYDKNERPSGVPDRFSASKSGTSSSLAIGGLRSEDEADYYCATWDDNLNGWVFGGGTKLTVLG
notes: Germline-edited (m) form of 4H7, light chain edited; IgG; also called 4H7 (modified)
B9: #50m (antibody, V domains shown)
VH: QVQLVQSGAEVKKPGASVKVSCKASGYTFTDYGLSWVRQAPGHGLEWMGWITAYNGDTNYAQKFQDRLSVTTDISTSTAYMELRSLKSDDTAVYYCARHVFCSGDGCYSGLGSWGQGTLVTVSS
VL: QSVLTQPPSASGAPGQRVIISCSGSSSNVGSNTVNWYQQLPGTAPKLLIYDKNERPSGVPDRFSASKSGTSSSLAIGGLRSEDEADYYCGTWDDNLNGWVFGGGTKLTVLG
notes: Germline-edited (m) form of 2F8, light chain edited; IgG; also called 2F8 (modified)
B10: #46m (antibody, V domains shown)
VH: QVQLVQSGPEVKKPGSSVKVSCKASGYTFTDYGLSWVRQAPGHGLEWMGWITAYNGDTNYAQKFQDRLSVTTDISTSTAYMELRSLKSDDTAVYYCARHVFCSGDGCYSGLGSWGQGTLVTVSS
VL: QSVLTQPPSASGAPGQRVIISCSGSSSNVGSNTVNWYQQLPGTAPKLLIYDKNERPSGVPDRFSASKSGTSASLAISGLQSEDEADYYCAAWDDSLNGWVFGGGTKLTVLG
notes: Germline-edited (m) form of 2E8, light chain edited; IgG; also called 2E8 (modified)
B11: 4E9 (antibody, V domains shown)
VH: QVQLVQSGAEVKKPGSSVKVSCKASGYTFTDYGLSWVRQAPGHGLEWMGWITAYNGDTNYAQKFQDRLSVTTDISTSTAYMELRSLKSDDTAVYYCARHVFCSGDGCYSGLGSWGQGTLVTVSS
VL: QSVLTQPPSVSGAPGQRVTISCSGSSSNVGSNTVNWYQQLPGTAPKLLIYDKNERPSGVPDRFSASKSGTSSSLAIGGLRSEDEADYYCGTWDDNLNGWVFGGGTKLTVLG
notes: IgG made in Expi293; also called #48; 48
B12: 3E7 (antibody, V domains shown)
VH: EVQLVESGTEVKKPGASVKVSCKASGYTFTDYGLSWVRQAPGHGLEWMGWITAYNGDTNYAQKFQDRLSVTTDISTSTAYMELRSLKSDDTAVYYCARHVFCSGDGCYSGLGSWGQGTLVTVSS
VL: QSVLTQPPSASGAPGQRVIISCSGSSSNVGSNTVNWYQQLPGTAPKLLIYDKNERPSGVPDRFSASKSGTSSSLAIGGLRSEDEADYYCGTWDDNLNGWVFGGGTKLTVLG
notes: IgG made in Expi293; also called #51; 51
B13: 2E8 (antibody, V domains shown)
VH: QVQLVQSGPEVKKPGSSVKVSCKASGYTFTDYGLSWVRQAPGHGLEWMGWITAYNGDTNYAQKFQDRLSVTTDISTSTAYMELRSLKSDDTAVYYCARHVFCSGDGCYSGLGSWGQGTLVTVSS
VL: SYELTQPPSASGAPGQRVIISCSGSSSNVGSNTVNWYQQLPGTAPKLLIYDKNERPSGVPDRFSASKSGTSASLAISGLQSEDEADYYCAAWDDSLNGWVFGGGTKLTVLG
notes: IgG made in Expi293; also called #46; 46
B14: #45m (antibody, V domains shown)
VH: QVQLVQSGSEVKKPGASVKVSCKASGYTFTDYGLSWVRQAPGHGLEWMGWITAYNGDTNYAQKFQDRLSVTTDISTSTAYMELRSLKSDDTAVYYCARHVFCSGDGCYSGLGSWGQGTLVTVSS
VL: not shown
notes: Germline-edited (m) form of 4G5, light chain edited; IgG; also called 4G5 (modified)
B15: 4H7 (antibody, V domains shown)
VH: QVQLVQSGAEVKKPGASVKVSCKASGYTFTDYGLSWVRQAPGHGLEWMGWITAYNGDTNYAQKFQDRLSVTTDISTSTAYMELRSLKSDDTAVYYCARHVFCSGDGCYSGLGSWGQGTLVTVSS
VL: SYELTQPPSASGAPGQRVIISCSGSSSNVGSNTVNWYQQLPGTAPKLLIYDKNERPSGVPDRFSASKSGTSSSLAIGGLRSEDEADYYCATWDDNLNGWVFGGGTKLTVLG
notes: IgG made in Expi293; also called #49; 49
B16: #51m (antibody, V domains shown)
VH: EVQLVQSGAEVKKPGASVKVSCKASGYTFTDYGLSWVRQAPGHGLEWMGWITAYNGDTNYAQKFQDRLSVTTDISTSTAYMELRSLKSDDTAVYYCARHVFCSGDGCYSGLGSWGQGTLVTVSS
VL: QSVLTQPPSASGAPGQRVIISCSGSSSNVGSNTVNWYQQLPGTAPKLLIYDKNERPSGVPDRFSASKSGTSSSLAIGGLRSEDEADYYCGTWDDNLNGWVFGGGTKLTVLG
notes: Germline-edited (m) form of 3E7, heavy chain edited; IgG; also called 3E7 (modified)
B17: 2E7 (antibody, V domains shown)
VH: EVQLVESGGGLVKPGGSLRLSCAGSGFTFSSYTMHWVRQAPGKGLEWVSSITGGSSYVDYSASVKGRFTISRDNAQSSLYLQMNSLRAEDTAVYYCARDDYGSGSYSNWFDPWGQGTLVTVSS
VL: SYELTQPPSASGTPGQRVTISCTGSSSNIGAGYDVHWYQQLPGAAPRLLMFGNSNRPSGVPDRFSGSKSGTSASLAITGLQADDEADYYCQSYDRSLSHVFGTGTKVTVLG
notes: IgG made in Expi293; also called #6
B18: #6m (antibody, V domains shown)
VH: EVQLVESGGGLVKPGGSLRLSCAGSGFTFSSYTMHWVRQAPGKGLEWVSSITGGSSYVDYSASVKGRFTISRDNAQSSLYLQMNSLRAEDTAVYYCARDDYGSGSYSNWFDPWGQGTLVTVSS
VL: QSVLTQPPSASGTPGQRVTISCTGSSSNIGAGYDVHWYQQLPGAAPRLLMFGNSNRPSGVPDRFSGSKSGTSASLAITGLQADDEADYYCQSYDRSLSHVFGTGTKVTVLG
notes: Germline-edited (m) form of 2E7, light chain edited; IgG; also called 2E7 (modified)
B19: 2H2 (antibody, V domains shown)
VH: QVQLVQSGGGLIQPGGSLRLSCAGSGFTFSSYTMHWVRQAPGKGLEWVSSITGGSSYVDYSASVKGRFTISRDNAQSSLYLQMNSLRAEDTAVYYCARDDYGSGSYSNWFDPWGQGTLVTVSS
VL: QSVLTQPPSVSGAPGQRVTISCTGSSSNIGAGYDVHWYQQLPGTAPKLLIFANTNRPSGVPDRFSGSKSGASASLAITGLQADDEADYYCQSYDRSLSHVFGTGTKVTVLG
notes: IgG made in Expi293; also called #7
B20: 13H9 (antibody, V domains shown)
VH: QVQLVQSGAEVKKPGASVKVSCKASGYTGYTFTDYGLSWVRQAPGHGLEWMGWITAYNGDTNYAQKFQDRLSVTTDISTSTAYMELRSLKSDDTAVYYCARHVFCSGDGCYSGLGSWGQGTLVTVSS
VL: SYELIQPPSASGAPGQRVIISCSGSSSNVGSNTVNWYQQLPGTAPKLLIYDKNERPSGVPDRFSASKSGTSASLAISGLQSEDEADYYCAAWDDSLNGWVFGGGTELTVLG
notes: IgG made in Expi293; also called #47; 47
B21: #47m (antibody, V domains shown)
VH: QVQLVQSGAEVKKPGASVKVSCKASGYTGYTFTDYGLSWVRQAPGHGLEWMGWITAYNGDTNYAQKFQDRLSVTTDISTSTAYMELRSLKSDDTAVYYCARHVFCSGDGCYSGLGSWGQGTLVTVSS
VL: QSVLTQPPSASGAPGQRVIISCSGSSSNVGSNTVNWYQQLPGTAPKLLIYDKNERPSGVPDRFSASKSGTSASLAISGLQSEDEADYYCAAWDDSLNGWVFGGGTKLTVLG
notes: Germline-edited (m) form of 13H9, light chain edited; IgG; also called 13H9 (modified)
B22: 9H4 (antibody, V domains shown)
VH: QVQLVQSGGGLVQPGGSLRISCTASGFTFRNYEMNWVRQAPGKGLEWVAYISSSGSSRYYADSVKGRFTISRDNAKNSLFLQMNSLRAEDMAVYYCARTDDGSSWFVSTSSFYGMDVWGQGTTVTVSS
VL: EIVLTQSPGIQSLSPGETATLSCRASESISSSYFAWYQQKPGQAPRLLIYGASSRASGIPDRFSGSGSGTDFTLTISRLEPEDFAVYYCQQYGSSPPITFGQGTRLEIKR
notes: IgG made in Expi293; also called #52; 52
B23: #52m (antibody, V domains shown)
VH: QVQLVESGGGLVQPGGSLRISCTASGFTFRNYEMNWVRQAPGKGLEWVAYISSSGSSRYYADSVKGRFTISRDNAKNSLFLQMNSLRAEDMAVYYCARTDDGSSWFVSTSSFYGMDVWGQGTTVTVSS
VL: EIVLTQSPGIQSLSPGETATLSCRASESISSSYFAWYQQKPGQAPRLLIYGASSRASGIPDRFSGSGSGTDFTLTISRLEPEDFAVYYCQQYGSSPPITFGQGTRLEIKR
notes: Germline-edited (m) form of 9H4, heavy chain edited; IgG; also called 9H4 (modified)

For the assay, the target named is DS-Cav1 (RSV F-protein, pre-form, in-house) (respiratory syncytial virus (RSV), UniProt P03420 26-513). As to the kind of experiment: ELISA, coated DS-Cav1, IgG titrated. A general note: ELISA stands for enzyme-linked immunosorbent assay.
DS-Cav1 (RSV F-protein, pre-form, in-house), sequence (P03420 26-524): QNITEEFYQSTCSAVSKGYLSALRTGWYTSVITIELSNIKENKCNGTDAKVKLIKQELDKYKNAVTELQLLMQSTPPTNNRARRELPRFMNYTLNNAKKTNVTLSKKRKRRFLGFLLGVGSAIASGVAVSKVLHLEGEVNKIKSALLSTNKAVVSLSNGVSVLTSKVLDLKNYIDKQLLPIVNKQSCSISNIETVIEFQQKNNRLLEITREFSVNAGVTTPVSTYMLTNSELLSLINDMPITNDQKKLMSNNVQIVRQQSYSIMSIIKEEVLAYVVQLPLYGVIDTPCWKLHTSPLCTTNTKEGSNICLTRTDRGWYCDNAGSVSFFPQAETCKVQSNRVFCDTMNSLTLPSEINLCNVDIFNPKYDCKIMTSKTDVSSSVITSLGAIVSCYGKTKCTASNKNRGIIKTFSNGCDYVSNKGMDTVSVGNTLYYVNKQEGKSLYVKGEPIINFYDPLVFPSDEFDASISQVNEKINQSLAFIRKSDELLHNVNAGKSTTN
The term Kd denotes the concentration at which binding is half-saturated. Lower therefore signals higher affinity. The molecule B1 yielded a Kd of around 1.31 nM.

Take B2: the equilibrium dissociation constant (Kd) is around 1.27 nM.

Consider B3, for which the Kd was around 0.84 nM.

B4: the Kd is around 0.8 nM.

B5 displayed a Kd of around 0.69 nM.

In the case of B6, the dissociation constant Kd is around 0.73 nM.

For the molecule B7, the Kd was around 0.67 nM.

For B8, the Kd was around 1.11 nM.

In the case of B9, the Kd is around 1.08 nM.

For the molecule B10, the Kd was around 1.26 nM.

Turning to B11, the Kd is around 0.7 nM.

As to B12, the Kd was around 0.37 nM.

B13 displayed a Kd of around 0.47 nM.

Consider B14, for which the Kd was around 0.95 nM.

Take B15: the Kd is around 2.15 nM.

On to B16, for which the Kd is around 1.26 nM.

As for B17, the Kd was around 0.4 nM.

B18: the Kd is around 2.34 nM.

Regarding B19, the Kd is around 0.44 nM.

Regarding B20, the Kd was around 0.61 nM.

Take B21: the dissociation constant (Kd) is around 0.94 nM.

Regarding B22, the equilibrium dissociation constant (Kd) is around 0.89 nM.

As to B23, the dissociation constant (Kd) is around 0.89 nM.
